# Test results: patent US5039791A, “Peptide fragments of tissue plasminogen activator” (Monsanto Company, priority 1989, dated 1991)
# Where no end group is shown, it is not given here.
# Target: T1, fibrin (Homo sapiens, UniProt P02671+P02675+P02679)
# T1 construct: purchased Kabi Vitrum
# T1 sequence (P02671 20-644 isoform P02671-2 limits assumed): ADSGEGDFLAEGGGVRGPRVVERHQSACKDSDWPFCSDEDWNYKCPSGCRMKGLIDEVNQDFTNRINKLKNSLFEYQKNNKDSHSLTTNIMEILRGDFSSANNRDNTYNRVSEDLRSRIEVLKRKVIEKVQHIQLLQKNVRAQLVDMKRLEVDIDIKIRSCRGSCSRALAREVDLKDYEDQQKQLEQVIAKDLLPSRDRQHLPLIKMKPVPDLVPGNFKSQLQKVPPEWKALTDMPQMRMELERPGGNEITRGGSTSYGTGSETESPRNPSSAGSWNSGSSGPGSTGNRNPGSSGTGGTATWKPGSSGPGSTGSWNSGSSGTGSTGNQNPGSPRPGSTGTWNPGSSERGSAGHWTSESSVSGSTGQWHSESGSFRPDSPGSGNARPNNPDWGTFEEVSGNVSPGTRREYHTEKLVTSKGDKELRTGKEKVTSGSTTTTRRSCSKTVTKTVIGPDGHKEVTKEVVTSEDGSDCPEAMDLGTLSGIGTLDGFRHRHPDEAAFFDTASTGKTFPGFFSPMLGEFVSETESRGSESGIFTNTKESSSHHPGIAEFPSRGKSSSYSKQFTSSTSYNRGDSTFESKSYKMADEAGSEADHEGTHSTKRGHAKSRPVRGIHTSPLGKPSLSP
# T1 sequence (P02675 45-491 limits assumed): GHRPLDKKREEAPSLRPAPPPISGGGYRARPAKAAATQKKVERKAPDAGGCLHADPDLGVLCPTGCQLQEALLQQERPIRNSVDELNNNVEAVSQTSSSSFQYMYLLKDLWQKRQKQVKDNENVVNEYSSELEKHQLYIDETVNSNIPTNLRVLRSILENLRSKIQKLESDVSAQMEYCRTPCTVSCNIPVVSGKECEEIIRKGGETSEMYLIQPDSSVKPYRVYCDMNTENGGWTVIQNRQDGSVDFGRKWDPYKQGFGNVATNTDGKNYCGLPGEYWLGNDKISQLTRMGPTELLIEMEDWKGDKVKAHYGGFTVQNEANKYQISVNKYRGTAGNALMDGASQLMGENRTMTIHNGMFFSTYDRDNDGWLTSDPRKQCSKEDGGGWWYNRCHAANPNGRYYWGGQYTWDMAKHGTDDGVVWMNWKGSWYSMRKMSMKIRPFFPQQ
# T1 sequence (P02679 27-437 isoform P02679-2 limits assumed): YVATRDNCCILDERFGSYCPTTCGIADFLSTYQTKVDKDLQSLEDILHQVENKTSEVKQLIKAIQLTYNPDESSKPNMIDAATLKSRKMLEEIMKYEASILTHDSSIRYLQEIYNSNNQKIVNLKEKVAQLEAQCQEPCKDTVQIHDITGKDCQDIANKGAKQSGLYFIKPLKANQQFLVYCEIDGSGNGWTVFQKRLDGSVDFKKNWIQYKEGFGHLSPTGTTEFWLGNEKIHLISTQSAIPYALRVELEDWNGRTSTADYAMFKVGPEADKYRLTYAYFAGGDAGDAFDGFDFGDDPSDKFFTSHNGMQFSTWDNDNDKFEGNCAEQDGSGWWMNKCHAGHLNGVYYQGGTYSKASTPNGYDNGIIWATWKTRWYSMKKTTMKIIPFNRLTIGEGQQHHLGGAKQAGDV
# Assay: Fibrin binding: binding of tPA to fibrin, tPA antigen in supernatant by ELISA
# Conditions: 15 μg/ml peptide; 200 ng/ml single chain melanoma tPA, 200 μg/ml human fibrinogen; no peptide = 48
# Protocol: Binding of tPA to fibrin was measured using the conventional method of Rijken et al., J. Biol. Chem. 257, 2920-2925 (1982). This method involves mixing thrombin with a solution containing tPA and fibrinogen, centrifuging the resulting clot and measuring the concentration of tPA antigen in the supernatant. In a final volume of 200 μl, the following were combined: 200 ng/ml single chain melanoma tPA, 200 μg/ml human fibrinogen, 15 μg/ml tPA peptide, 1.1 mg/ml bovine serum albumin, 0.55 mg/ml bovine gamma globulin and 10 mM ε-amino caproic acid in PBSAT. Controls omitted fibrinogen, peptide or both. Mixtures were clotted by the addition of 1 unit/ml bovine thrombin, incubated one hour at room temperature and centrifuged. tPA antigen in the supernatant was measured by conventional ELISA and the percentage bound calculated by difference using the antigen level of a control mixture with no fibrinogen as 0% bound. […] An ELISA assay kit for tPA and PAI-1 was purchased from American Diagnostica Inc. and assays were performed according to printed protocols supplied by the manufacturer with the kit except that a single lot of melanoma tPA from American Diagnostica Inc. (product 111, lot 47-01) was used as the antigen standard throughout this work and 5.0 mg/ml of BSA and 2.5 mg/ml of bovine gamma globulin were included in ELISA buffers.
row,Substance,% Bound (binding of tPA to fibrin) [%]
1,"CDVPSCSTCGLRQYSQPQFRIKGGL-amide (CDVPSCSTCGLRQYSQPQFRIKGGL-NH2; cysteine pairing not given here) [Peptide 169, 25 amino acid synthetic peptide amide fragment of native human tPA]",55
2,"CNSGRAQCHSVPVKSCSEPRCFNGG-amide (CNSGRAQCHSVPVKSCSEPRCFNGG-NH2; cysteine pairing not given here) [Peptide 147, 25 amino acid synthetic peptide amide fragment of native human tPA]",55
3,"DGDAKPWCHVLKNRRLTWEYCDVPS-amide (DGDAKPWCHVLKNRRLTWEYCDVPS-NH2; cysteine pairing not given here) [Peptide 167, 25 amino acid synthetic peptide amide fragment of native human tPA]",50
4,"EFCSTPACSEGNSDCYFGNGSAYRG [Peptide 160, 25 amino acid synthetic peptide fragment of native human tPA]",56
5,ERFPPHHLTVILGRTYRVVPGEEEQ-NH2 [Peptide 176],53
6,ERLKEAHVRLYPSSRCTSQHLLNRT-NH2 [Peptide 186],50
7,GNSDCYFGNGSAYRGTHSLTESGAS-NH2 [Peptide 161],57
8,"LCAGDTRSGGPQANLHDACQGDSGG-amide [Peptide 189, 25 amino acid synthetic peptide amide fragment of native human tPA]",50
9,"LKNRRLTWEYCDVPSCSTCGLRQYS [Peptide 168, 25 amino acid synthetic peptide fragment of native human tPA]",54
10,LLNRTVTDNMLCAGDTRSGGPQANL-NH2 [Peptide 188],52
11,"LRSNRVEYCWCNSGRAQCHSVPVKS-amide (LRSNRVEYCWCNSGRAQCHSVPVKS-NH2; cysteine pairing not given here) [Peptide 146, 25 amino acid synthetic peptide amide fragment of native human tPA]",54
12,"LYFSDFVCQCPEGFAGKCCEIDTRA [Peptide 150, 25 amino acid synthetic peptide fragment of native human tPA]",52
13,"PEGFAGKCCEIDTRATCYEDQGISY-amide (PEGFAGKCCEIDTRATCYEDQGISY-NH2; cysteine pairing not given here) [Peptide 151, 25 amino acid synthetic peptide amide fragment of native human tPA]",53
14,"QESSVVRTVCLPPADLQLPDWTECE-amide [Peptide 182, 25 amino acid synthetic peptide amide fragment of native human tPA]",52
15,"QLKSDSSRCAQESSVVRTVCLPPAD-amide (QLKSDSSRCAQESSVVRTVCLPPAD-NH2; cysteine pairing not given here) [Peptide 181, 25 amino acid synthetic peptide amide fragment of native human tPA]",49
16,"QQHQSWLRPVLRSNRVEYCWCNSGR-amide (QQHQSWLRPVLRSNRVEYCWCNSGR-NH2; cysteine pairing not given here) [Peptide 145, 25 amino acid synthetic peptide amide fragment of native human tPA]",56
17,RRGARSYQVICRDEKTQMIYQQHQS [Peptide 143],57
18,SMILIGKVYTAQNPSAQALGLGKHN-NH2 [Peptide 164],53
19,SPSQEIHARFRRGARSYQVICRDEK [Peptide 142],58
20,TAESGAECTNWNSSALAQKPYSGRR-NH2 [Peptide 154],56
21,WNSSALAQKPYSGRRPDAIRLGLGN [Peptide 155],54
22,"YPSSRCTSQHLLNRTVTDNMLCAGD-amide [Peptide 187, 25 amino acid synthetic peptide amide fragment of native human tPA]",51
23,YSGRRPDAIRLGLGNHNYCRNPDRD-NH2 [Peptide 156],52
24,"YVFKAGKYSSEFCSTPACSEGNSDC-amide (YVFKAGKYSSEFCSTPACSEGNSDC-NH2; cysteine pairing not given here) [Peptide 159, 25 amino acid synthetic peptide amide fragment of native human tPA]",54
